From patent publication US20100167390, “Novel Oligonucleotide and NF-kB Decoy Comprising the Same” (published 2010)

Target: NF-kB p65 (RelA) (UniProt Q04206 Q04206:1-551)
Test: competition; primary screen 2.10
Settings: protein: extract; tags: TPA and CI-stimulated Jurkat nuclear extract, Active Motif TransAM kit
Protocol: The measurement was performed in accordance with the instructions attached to the kit. The kit was made for quantifying the NF-κB bound to the solid phase by ELISA after adding an NF-κB solution to the wells in which the NF-κB (p65 protein) consensus binding sequence was immobilized and after washing the resultant. By this measurement method, the higher the binding capacity of the oligonucleotide to the NF-κB, the smaller amount of the NF-κB quantified by the ELISA.
More concretely, the above-described measurement was carried out as follows concretely: Each SODN solution was serially diluted with Complete Binding Buffer contained in the kit to prepare test samples (common ratio: 3-fold, 4 times, n=3). […] After allowing coloration for 10 minutes, the Stop Solution was added to stop the reaction, and the absorbances at 450 nm and 630 nm were measured.
The absorbance at 630 nm was subtracted from the absorbance at 450 nm and the mean value of the blanks was further subtracted from the resultant, and the percentage of the mean value of each concentration based on the mean value of the controls was calculated. The concentration at which the calculated value was 50% (i.e., at which the binding was inhibited by 50%) was calculated from the regression lines between two points interposing 50% (an analysis software Graph Pad PRISM 4, GraphPad SOFTWARE was used). […]

Chain of NF-kB p65 (RelA) (Q04206 whole entry, one chain of several): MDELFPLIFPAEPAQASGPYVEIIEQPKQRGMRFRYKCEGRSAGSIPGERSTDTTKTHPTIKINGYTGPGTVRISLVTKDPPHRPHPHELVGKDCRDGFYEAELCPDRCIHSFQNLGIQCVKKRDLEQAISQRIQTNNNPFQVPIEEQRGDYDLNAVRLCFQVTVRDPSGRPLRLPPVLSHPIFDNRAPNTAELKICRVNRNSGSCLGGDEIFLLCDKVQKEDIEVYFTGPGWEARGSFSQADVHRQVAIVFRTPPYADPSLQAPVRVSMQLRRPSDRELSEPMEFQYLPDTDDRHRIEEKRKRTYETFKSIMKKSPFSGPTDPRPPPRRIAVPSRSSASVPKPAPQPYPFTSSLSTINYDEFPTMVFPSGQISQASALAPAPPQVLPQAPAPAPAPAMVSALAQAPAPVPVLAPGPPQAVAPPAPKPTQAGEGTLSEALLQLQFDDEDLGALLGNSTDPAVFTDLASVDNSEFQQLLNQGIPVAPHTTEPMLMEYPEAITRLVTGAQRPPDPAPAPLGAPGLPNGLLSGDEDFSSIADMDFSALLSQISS

B1: SODN36 (dsDNA)
DNA 1: CTCGGGATTTCCCAGCTCG
DNA 2: CGAGCTGGGAAATCCCGAG
modifications: PS all bonds, both strands
  IC50: 2.61 nM
